According to article PMC2900196:

Tests used:
[1] = target: Grass carp reovirus (GCRV) inner capsid shell protein VP3 (Grass carp reovirus (GCRV)); assay: cryo-EM structure
[2] = target: Grass carp reovirus (GCRV) turret protein VP1 (Grass carp reovirus (GCRV)); assay: cryo-EM structure

Which stoichiometry N [1] does the source give for “Grass carp reovirus (GCRV) inner capsid shell protein VP3 (natural protein)” here?
The stoichiometry N was 120.

With “Grass carp reovirus (GCRV) turret protein VP1 (natural protein)” as the substance, how does the stoichiometry N [2] read?
The stoichiometry N was 5.
